# From patent US20250243277A1 (AVACTA LIFE SCIENCES, published 2025)
# Residue numbers refer to the chain shown, from its start.
# B1: Clone 140 (designed binder)
# chain: MIPGGLSEAKPATPEIQEIVDKVKPQLEEKTGETYGKLEAVQYKTQVVRQVGVWAYEGTNYYIKVRAGDNKYMHLKVFKSLGRTVEGGRWEDLVLTGYQVDKNKDDELTGF
# notes: His-tagged
# B2: Clone 174 (designed binder)
# chain: B1 chain with G52T, V53I, A55H, Y56F, V85E, E86V, G87E, R89S, W90F
# notes: His-tagged
# B3: Clone 156 (designed binder)
# chain: MIPGGLSEAKPATPEIQEIVDKVKPQLEEKTGETYGKLEAVQYKTQVVIQQLYKQTWGTNYYIKVRAGDNKYMHLKVFKSLDYQHWPYDFEDLVLTGYQVDKNKDDELTGF
# notes: His-tagged
# B4: Clone 171 (designed binder)
# chain: MIPGGLSEAKPATPEIQEIVDKVKPQLEEKTGETYGKLEAVQYKTQVVIDHQNHPTEGTNYYIKVRAGDNKYMHLKVFKSLWPWLHSTEQEDLVLTGYQVDKNKDDELTGF
# notes: His-tagged
# B5: Clone 141 (designed binder)
# chain: MIPGGLSEAKPATPEIQEIVDKVKPQLEEKTGETYGKLEAVQYKTQVVDLHTLKSGVGTNYYIKVRAGDNKYMHLKVFKSLYIKHHLWWIEDLVLTGYQVDKNKDDELTGF
# notes: His-tagged
# B6: Clone 139 (designed binder)
# chain: MIPGGLSEAKPATPEIQEIVDKVKPQLEEKTGETYGKLEAVQYKTQVVGLIQPPYAQGTNYYIKVRAGDNKYMHLKVFKSLGWQYIDLFHEDLVLTGYQVDKNKDDELTGF
# notes: His-tagged
# B7: Clone 166 (designed binder)
# chain: MIPGGLSEAKPATPEIQEIVDKVKPQLEEKTGETYGKLEAVQYKTQVVVAGLKWHWEGTNYYIKVRAGDNKYMHLKVFKSLIYASQYDYREDLVLTGYQVDKNKDDELTGF
# notes: His-tagged
# B8: Clone 155 (designed binder)
# chain: MIPGGLSEAKPATPEIQEIVDKVKPQLEEKTGETYGKLEAVQYKTQVVWRTGQKWQVGTNYYIKVRAGDNKYMHLKVFKSLAGHYEVHIGEDLVLTGYQVDKNKDDELTGF
# notes: His-tagged
# B9: Clone 169 (designed binder)
# chain: MIPGGLSEAKPATPEIQEIVDKVKPQLEEKTGETYGKLEAVQYKTQVVYANIGPWLYGTNYYIKVRAGDNKYMHLKVFKSLFKHRQQLHYTEDLVLTGYQVDKNKDDELTGF
# notes: His-tagged
# B10: Clone 138 (designed binder)
# chain: MIPGGLSEAKPATPEIQEIVDKVKPQLEEKTGETYGKLEAVQYKTQVVDNVRHGWLSGTNYYIKVRAGDNKYMHLKVFKSLFALLWSAYGEDLVLTGYQVDKNKDDELTGF
# notes: His-tagged
# B11: Clone 17 (designed binder)
# chain: MIPGGLSEAKPATPEIQEIVDKVKPQLEEKTGETYGKLEAVQYKTQVVIVYTIWNYVGTNYYIKVRAGDNKYMHLKVFKSLTPQTETEHEEDLVLTGYQVDKNKDDELTGF
# notes: His-tagged
# B12: Clone 145 (designed binder)
# chain: MIPGGLSEAKPATPEIQEIVDKVKPQLEEKTGETYGKLEAVQYKTQVVYKNVGPWVNGTNYYIKVRAGDNKYMHLKVFKSLYRTNRGHEREDLVLTGYQVDKNKDDELTGF
# notes: His-tagged
# B13: Clone 14 (designed binder)
# chain: MIPGGLSEAKPATPEIQEIVDKVKPQLEEKTGETYGKLEAVQYKTQVVSFLVDPLHLGTNYYIKVRAGDNKYMHLKVFKSLRSFGGEWGWEDLVLTGYQVDKNKDDELTGF
# notes: His-tagged
# B14: Clone 148 (designed binder)
# chain: MIPGGLSEAKPATPEIQEIVDKVKPQLEEKTGETYGKLEAVQYKTQVVRDYDPFPYTGTNYYIKVRAGDNKYMHLKVFKSLWRGPGPYAIEDLVLTGYQVDKNKDDELTGF
# notes: His-tagged
# B15: Clone 157 (designed binder)
# chain: MIPGGLSEAKPATPEIQEIVDKVKPQLEEKTGETYGKLEAVQYKTQVVIYYPIWDFHGTNYYIKVRAGDNKYMHLKVFKSLFWGDLKTEDLVLTGYQVDKNKDDELTGF
# notes: His-tagged
# B16: Clone 165 (designed binder)
# chain: MIPGGLSEAKPATPEIQEIVDKVKPQLEEKTGETYGKLEAVQYKTQVVNEAESSRFLGTNYYIKVRAGDNKYMHLKVFKSLHDFTLKWKFEDLVLTGYQVDKNKDDELTGF
# notes: His-tagged
# B17: Clone 152 (designed binder)
# chain: MIPGGLSEAKPATPEIQEIVDKVKPQLEEKTGETYGKLEAVQYKTQVVRAQLRPWVAGTNYYIKVRAGDNKYMHLKVFKSLGWNEEARPPEDLVLTGYQVDKNKDDELTGF
# notes: His-tagged
# B18: Clone 142 (designed binder)
# chain: MIPGGLSEAKPATPEIQEIVDKVKPQLEEKTGETYGKLEAVQYKTQVVSWYKLWSYSGTNYYIKVRAGDNKYMHLKVFKSLFEGRHKDPEEDLVLTGYQVDKNKDDELTGF
# notes: His-tagged
# B19: Clone 170 (designed binder)
# chain: MIPGGLSEAKPATPEIQEIVDKVKPQLEEKTGETYGKLEAVQYKTQVVHQFQEIKWFGTNYYIKVRAGDNKYMHLKVFKSLFHRTPGSTTEDLVLTGYQVDKNKDDELTGF
# notes: His-tagged
# B20: Clone 163 (designed binder)
# chain: MIPGGLSEAKPATPEIQEIVDKVKPQLEEKTGETYGKLEAVQYKTQVVISASEIRWYGTNYYIKVRAGDNKYMHLKVFKSLKAFANDYYKEDLVLTGYQVDKNKDDELTGF
# notes: His-tagged
# B21: Clone 146 (designed binder)
# chain: MIPGGLSEAKPATPEIQEIVDKVKPQLEEKTGETYGKLEAVQYKTQVVSKRSAWHWTGTNYYIKVRAGDNKYMHLKVFKSLFWNAPDDRQEDLVLTGYQVDKNKDDELTGF
# notes: His-tagged
# B22: Clone 160 (designed binder)
# chain: MIPGGLSEAKPATPEIQEIVDKVKPQLEEKTGETYGKLEAVQYKTQVVGPWYFGSAWGTNYYIKVRAGDNKYMHLKVFKSLWENFHKLEKEDLVLTGYQVDKNKDDELTGF
# notes: His-tagged
# B23: Clone 137 (designed binder)
# chain: MIPGGLSEAKPATPEIQEIVDKVKPQLEEKTGETYGKLEAVQYKTQVVLWPLQPKNWGTNYYIKVRAGDNKYMHLKVFKSLGWNYLEAIAEDLVLTGYQVDKNKDDELTGF
# notes: His-tagged
# B24: Clone 144 (designed binder)
# chain: MIPGGLSEAKPATPEIQEIVDKVKPQLEEKTGETYGKLEAVQYKTQVVAYQSPPYHFGTNYYIKVRAGDNKYMHLKVFKSLRQIAGYIAIEDLVLTGYQVDKNKDDELTGF
# notes: His-tagged
# B25: Clone 167 (designed binder)
# chain: MIPGGLSEAKPATPEIQEIVDKVKPQLEEKTGETYGKLEAVQYKTQVVYRNKQWYNEGTNYYIKVRAGDNKYMHLKVFKSLKIGYLEFVLEDLVLTGYQVDKNKDDELTGF
# notes: His-tagged
# B26: Clone 208 (designed binder)
# chain: B25 chain with Y49Q, R50W, N51K, Q53T, W54Q, N56F, E57F, K82R, V89E, L90I
# notes: His-tagged
# B27: Clone 159 (designed binder)
# chain: MIPGGLSEAKPATPEIQEIVDKVKPQLEEKTGETYGKLEAVQYKTQVVHVHWAWNYLGTNYYIKVRAGDNKYMHLKVFKSLRNFYTFPHEEDLVLTGYQVDKNKDDELTGF
# notes: His-tagged
# B28: Clone 158 (designed binder)
# chain: MIPGGLSEAKPATPEIQEIVDKVKPQLEEKTGETYGKLEAVQYKTQVVDNVANIVPHGTNYYIKVRAGDNKYMHLKVFKSLGWNYEHKWPEDLVLTGYQVDKNKDDELTGF
# notes: His-tagged
# B29: Clone 143 (designed binder)
# chain: MIPGGLSEAKPATPEIQEIVDKVKPQLEEKTGETYGKLEAVQYKTQVVDWPSHAKFWGTNYYIKVRAGDNKYMHLKVFKSLFLPDKDDPFEDLVLTGYQVDKNKDDELTGF
# notes: His-tagged
# B30: Clone 147 (designed binder)
# chain: MIPGGLSEAKPATPEIQEIVDKVKPQLEEKTGETYGKLEAVQYKTQVVVHITVEWEGTNYYIKVRAGDNKYMHLKVFKSLIYQRHTQSREDLVLTGYQVDKNKDDELTGF
# notes: His-tagged
# B31: Clone 153 (designed binder)
# chain: MIPGGLSEAKPATPEIQEIVDKVKPQLEEKTGETYGKLEAVQYKTQVVYPWSWNGHYGTNYYIKVRAGDNKYMHLKVFKSLIKYPFARAEEDLVLTGYQVDKNKDDELTGF
# notes: His-tagged
# B32: Clone 223 (designed binder)
# chain: MIPGGLSEAKPATPEIQEIVDKVKPQLEEKTGETYGKLEAVQYKTQVVFPWDQENYYGTNYYIKVRAGDNKYMHLKVFKSLIKEPFIKNVEDLVLTGYQVDKNKDDELTGF
# notes: His-tagged
# B33: Clone 151 (designed binder)
# chain: MIPGGLSEAKPATPEIQEIVDKVKPQLEEKTGETYGKLEAVQYKTQVVWEEVNWRNWGTNYYIKVRAGDNKYMHLKVFKSLVPIHDHLRNEDLVLTGYQVDKNKDDELTGF
# notes: His-tagged
# B34: Clone 150 (designed binder)
# chain: MIPGGLSEAKPATPEIQEIVDKVKPQLEEKTGETYGKLEAVQYKTQVVREVGLWRFQGTNYYIKVRAGDNKYMHLKVFKSLYIGYAGDAQEDLVLTGYQVDKNKDDELTGF
# notes: His-tagged
# B35: Clone 68 (designed binder)
# chain: MIPGGLSEAKPATPEIQEIVDKVKPQLEEKTGETYGKLEAVQYKTQVVRVQGLWNFQGTNYYIKVRAGDNKYMHLKVFKSLGHHGDHEKWEDLVLTGYQVDKNKDDELTGF
# notes: His-tagged
# B36: Clone 164 (designed binder)
# chain: B35 chain with V50I, Q51W, L53F, N55A, H84E, G85S, D86G, H87Q, E88N, K89L
# notes: His-tagged
# Biological target: T1, human PD-L1-Fc (R&D Systems) (human, UniProt Q9NZQ7 19-239)
# T1 construct: Bought from R&D Systems; Biotinylated in-house for the phage selection; also called huPD-L1-Fc; human PD-L1-Fc antigen; not shown: Fc part of the bought fusion
# T1 sequence (Q9NZQ7 19-239 limits assumed): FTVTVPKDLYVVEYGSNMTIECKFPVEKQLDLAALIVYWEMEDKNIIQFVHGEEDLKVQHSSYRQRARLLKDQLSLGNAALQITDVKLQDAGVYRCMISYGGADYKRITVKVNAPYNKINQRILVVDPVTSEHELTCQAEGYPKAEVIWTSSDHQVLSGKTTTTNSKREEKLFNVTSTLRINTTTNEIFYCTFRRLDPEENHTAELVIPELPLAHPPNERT
# Experiment: soluble Affimer ELISA
row,binding result,Binder
1,binds,B1
2,binds,B2
3,binds,B3
4,binds,B4
5,binds,B5
6,binds,B6
7,binds,B7
8,binds,B8
9,binds,B9
10,binds,B10
11,binds,B11
12,binds,B12
13,binds,B13
14,binds,B14
15,binds,B15
16,binds,B16
17,binds,B17
18,binds,B18

row,binding result,Binder
1,binds,B19
2,binds,B20
3,binds,B21
4,binds,B22
5,binds,B23
6,binds,B24
7,binds,B25
8,binds,B26
9,binds,B27
10,binds,B28
11,binds,B29
12,binds,B30
13,binds,B31
14,binds,B32
15,binds,B33
16,binds,B34
17,binds,B35
18,binds,B36
